Key:
[1] = molecular target: BG505.T332N Env on Env-pseudotyped virus (HIV-1 BG505 (clade A))
[2] = molecular target: BG505.T332N Env on Env-pseudotyped virus (HIV-1 BG505 (clade A)); experiment: cell-based or functional assay

Row | Substance | IC50, neutralization of BG505.T332N pseudovirus, TZM-bl cells [1] | IC50 of neutralization of BG505.T332N Env-pseudovirus (TZM-bl) [2]
1 | 3BNC117 (antibody) | 0.041 µg/mL | 
2 | 45-46 (antibody) | 0.033 µg/mL | 
3 | 2G12 (antibody) | 0.79 µg/mL | 
4 | PGT122 (antibody) | 0.112 µg/mL | 
5 | PGT121 (antibody) | 0.015 µg/mL | 
6 | VRC06 (antibody) | 3.32 µg/mL | 
7 | PGT130 (antibody) | 0.027 µg/mL | 
8 | 1NC9 (antibody) | 0.251 µg/mL | 
9 | PGT145 (antibody) | 0.083 µg/mL | 
10 | A32 (antibody) | > 30 µg/mL | > 30 µg/mL
11 | CH103 (antibody) | 2.57 µg/mL | 
12 | X5 (antibody) | > 30 µg/mL | > 30 µg/mL
13 | F240 (antibody) | > 30 µg/mL | > 30 µg/mL
14 | b6 (antibody) | > 30 µg/mL | > 30 µg/mL
15 | CH31 (antibody) | 0.014 µg/mL | 
16 | VRC03 (antibody) | 0.554 µg/mL | 
17 | PGV04 (antibody) | 0.066 µg/mL | 
18 | HJ16 (antibody) | 3.2 µg/mL | 
19 | PGT136 (antibody) | 25.7 µg/mL | 26.6 µg/mL
20 | 12A12 (antibody) | 0.05 µg/mL | 

Row | Substance | IC50, neutralization of BG505.T332N pseudovirus, TZM-bl cells [1] | IC50 of neutralization of BG505.T332N Env-pseudovirus (TZM-bl) [2]
21 | CH106 (antibody) | 2.7 µg/mL | 
22 | PGT125 (antibody) | 0.007 µg/mL | 
23 | 8ANC195 (antibody) | 0.139 µg/mL | 
24 | 3BC176 (antibody) | 0.175 µg/mL | 
25 | F91 (antibody) | > 30 µg/mL | > 30 µg/mL
26 | 7B2 (antibody) | > 30 µg/mL | > 30 µg/mL
27 | CH01 (antibody) | 0.301 µg/mL | 
28 | PGT126 (antibody) | 0.01 µg/mL | 
29 | b12 (antibody) | > 30 µg/mL | 30 µg/mL
30 | VRC06b (antibody) | 1.11 µg/mL | 
31 | PGT135 (antibody) | 2.23 µg/mL | 
32 | F105 (antibody) | > 30 µg/mL | > 30 µg/mL
33 | PG16 (antibody) | 0.008 µg/mL | 
34 | 3BC315 (antibody) | 1.26 µg/mL | 
35 | PGT123 (antibody) | 0.028 µg/mL | 
36 | PGT128 (antibody) | 0.011 µg/mL | 
37 | VRC01 (antibody) | 0.07 µg/mL | 
38 | PGT127 (antibody) | 0.037 µg/mL | 
39 | 3BNC60 (antibody) | 0.034 µg/mL | 

From patent US20140212458A1
